Reference: patent US10941182 (Amgen, dated 2021)
Starred links: 1 amine or outer side, 2 acyl side, 3 side chain; linkers in the order of their positions; H or OH if unused. Non-standard residues stand in square brackets, D forms with d. *: point of attachment. AC4Abu = α-carboxy-4-aminobutyric acid, O=C(C(CCN[*:1])C(=O)[*:3])[*:2]; Oic = O=C(O)[C@@H]1C[C@@H]2CCCC[C@@H]2N1; Phe(4-Cl) = N[C@@H](Cc1ccc(Cl)cc1)C(=O)O; d(β3hF) = N[C@@H](CC(=O)O)Cc1ccccc1; NMeR = CN[C@@H](CCCNC(=N)N)C(=O)O; Palmitoyl = CCCCCCCCCCCCCCCC(=O)*; β3hF = N[C@H](CC(=O)O)Cc1ccccc1; Cha = N[C@@H](CC1CCCCC1)C(=O)O; αMeP = C[C@@]1(C(=O)O)CCCN1; β3hP = O=C(O)C[C@@H]1CCCN1; Nle = CCCC[C@H](N)C(=O)O; AEEA = NCCOCCOCC(=O)O; Aib = CC(C)(N)C(=O)O; Inp = O=C(O)C1CCNCC1; Nip = nipecotic acid; βAla = NCCC(=O)O

B1: SEQ ID NO: 583 (peptide)
peptide: Palmitoyl-[AC4Abu][AEEA][AEEA][dQ]RP[NMeR][Cha]SHKG[Inp][Nle][Aib][Phe(4-Cl)]-OH
SMILES: CCCCCCCCCCCCCCCC(=O)NCCC(C(=O)O)C(=O)NCCOCCOCC(=O)NCCOCCOCC(=O)N[C@H](CCC(N)=O)C(=O)N[C@@H](CCCNC(=N)N)C(=O)N1CCC[C@H]1C(=O)N(C)[C@@H](CCCNC(=N)N)C(=O)N[C@@H](CC1CCCCC1)C(=O)N[C@@H](CO)C(=O)N[C@@H](Cc1c[nH]cn1)C(=O)N[C@@H](CCCCN)C(=O)NCC(=O)N1CCC(C(=O)N[C@@H](CCCC)C(=O)NC(C)(C)C(=O)N[C@@H](Cc2ccc(Cl)cc2)C(=O)O)CC1
B2: SEQ ID NO: 573 (peptide)
peptide: Palmitoyl-[AC4Abu][AEEA][AEEA][dQ]RP[NMeR][Cha]SHKG[Oic][Nle][d(β3hF)]-OH
SMILES: CCCCCCCCCCCCCCCC(=O)NCCC(C(=O)O)C(=O)NCCOCCOCC(=O)NCCOCCOCC(=O)N[C@H](CCC(N)=O)C(=O)N[C@@H](CCCNC(=N)N)C(=O)N1CCC[C@H]1C(=O)N(C)[C@@H](CCCNC(=N)N)C(=O)N[C@@H](CC1CCCCC1)C(=O)N[C@@H](CO)C(=O)N[C@@H](Cc1c[nH]cn1)C(=O)N[C@@H](CCCCN)C(=O)NCC(=O)N1[C@H](C(=O)N[C@@H](CCCC)C(=O)N[C@@H](CC(=O)O)Cc2ccccc2)C[C@@H]2CCCC[C@@H]21
B3: SEQ ID NO: 567 (peptide)
peptide: Palmitoyl-[AC4Abu][AEEA][AEEA][dQ]RP[NMeR][Cha]SHKG[Oic][Nle]P[d(β3hF)]-OH
SMILES: CCCCCCCCCCCCCCCC(=O)NCCC(C(=O)O)C(=O)NCCOCCOCC(=O)NCCOCCOCC(=O)N[C@H](CCC(N)=O)C(=O)N[C@@H](CCCNC(=N)N)C(=O)N1CCC[C@H]1C(=O)N(C)[C@@H](CCCNC(=N)N)C(=O)N[C@@H](CC1CCCCC1)C(=O)N[C@@H](CO)C(=O)N[C@@H](Cc1c[nH]cn1)C(=O)N[C@@H](CCCCN)C(=O)NCC(=O)N1[C@H](C(=O)N[C@@H](CCCC)C(=O)N2CCC[C@H]2C(=O)N[C@@H](CC(=O)O)Cc2ccccc2)C[C@@H]2CCCC[C@@H]21
B4: SEQ ID NO: 569 (peptide)
peptide: Palmitoyl-[AC4Abu][AEEA][AEEA][dQ]RP[NMeR][Cha]SHKG[Oic][Nle][Aib][d(β3hF)]-OH
SMILES: CCCCCCCCCCCCCCCC(=O)NCCC(C(=O)O)C(=O)NCCOCCOCC(=O)NCCOCCOCC(=O)N[C@H](CCC(N)=O)C(=O)N[C@@H](CCCNC(=N)N)C(=O)N1CCC[C@H]1C(=O)N(C)[C@@H](CCCNC(=N)N)C(=O)N[C@@H](CC1CCCCC1)C(=O)N[C@@H](CO)C(=O)N[C@@H](Cc1c[nH]cn1)C(=O)N[C@@H](CCCCN)C(=O)NCC(=O)N1[C@H](C(=O)N[C@@H](CCCC)C(=O)NC(C)(C)C(=O)N[C@@H](CC(=O)O)Cc2ccccc2)C[C@@H]2CCCC[C@@H]21
B5: SEQ ID NO: 580 (peptide)
peptide: Palmitoyl-[AC4Abu][AEEA][AEEA][dQ]RP[NMeR][Cha]SHKG[Oic][Aib][Phe(4-Cl)]-OH
SMILES: CCCCCCCCCCCCCCCC(=O)NCCC(C(=O)O)C(=O)NCCOCCOCC(=O)NCCOCCOCC(=O)N[C@H](CCC(N)=O)C(=O)N[C@@H](CCCNC(=N)N)C(=O)N1CCC[C@H]1C(=O)N(C)[C@@H](CCCNC(=N)N)C(=O)N[C@@H](CC1CCCCC1)C(=O)N[C@@H](CO)C(=O)N[C@@H](Cc1c[nH]cn1)C(=O)N[C@@H](CCCCN)C(=O)NCC(=O)N1[C@H](C(=O)NC(C)(C)C(=O)N[C@@H](Cc2ccc(Cl)cc2)C(=O)O)C[C@@H]2CCCC[C@@H]21
B6: SEQ ID NO: 578 (peptide)
peptide: Palmitoyl-[AC4Abu][AEEA][AEEA][dQ]RP[NMeR][Cha]SHKG[Oic][Nle][β3hF]-OH
SMILES: CCCCCCCCCCCCCCCC(=O)NCCC(C(=O)O)C(=O)NCCOCCOCC(=O)NCCOCCOCC(=O)N[C@H](CCC(N)=O)C(=O)N[C@@H](CCCNC(=N)N)C(=O)N1CCC[C@H]1C(=O)N(C)[C@@H](CCCNC(=N)N)C(=O)N[C@@H](CC1CCCCC1)C(=O)N[C@@H](CO)C(=O)N[C@@H](Cc1c[nH]cn1)C(=O)N[C@@H](CCCCN)C(=O)NCC(=O)N1[C@H](C(=O)N[C@@H](CCCC)C(=O)N[C@H](CC(=O)O)Cc2ccccc2)C[C@@H]2CCCC[C@@H]21
B7: SEQ ID NO: 571 (peptide)
peptide: Palmitoyl-[AC4Abu][AEEA][AEEA][dQ]RP[NMeR][Cha]SHKG[Oic][Nle][β3hP][d(β3hF)]-OH
SMILES: CCCCCCCCCCCCCCCC(=O)NCCC(C(=O)O)C(=O)NCCOCCOCC(=O)NCCOCCOCC(=O)N[C@H](CCC(N)=O)C(=O)N[C@@H](CCCNC(=N)N)C(=O)N1CCC[C@H]1C(=O)N(C)[C@@H](CCCNC(=N)N)C(=O)N[C@@H](CC1CCCCC1)C(=O)N[C@@H](CO)C(=O)N[C@@H](Cc1c[nH]cn1)C(=O)N[C@@H](CCCCN)C(=O)NCC(=O)N1[C@H](C(=O)N[C@@H](CCCC)C(=O)N2CCC[C@H]2CC(=O)N[C@@H](CC(=O)O)Cc2ccccc2)C[C@@H]2CCCC[C@@H]21
B8: SEQ ID NO: 570 (peptide)
peptide: Palmitoyl-[AC4Abu][AEEA][AEEA][dQ]RP[NMeR][Cha]SHKG[Oic][Nle][αMeP][d(β3hF)]-OH
SMILES: CCCCCCCCCCCCCCCC(=O)NCCC(C(=O)O)C(=O)NCCOCCOCC(=O)NCCOCCOCC(=O)N[C@H](CCC(N)=O)C(=O)N[C@@H](CCCNC(=N)N)C(=O)N1CCC[C@H]1C(=O)N(C)[C@@H](CCCNC(=N)N)C(=O)N[C@@H](CC1CCCCC1)C(=O)N[C@@H](CO)C(=O)N[C@@H](Cc1c[nH]cn1)C(=O)N[C@@H](CCCCN)C(=O)NCC(=O)N1[C@H](C(=O)N[C@@H](CCCC)C(=O)N2CCC[C@@]2(C)C(=O)N[C@@H](CC(=O)O)Cc2ccccc2)C[C@@H]2CCCC[C@@H]21
B9: SEQ ID NO: 577 (peptide)
peptide: Palmitoyl-[AC4Abu][AEEA][AEEA][dQ]RP[NMeR][Cha]SHKG[Oic][Nle][Aib][β3hF]-OH
SMILES: CCCCCCCCCCCCCCCC(=O)NCCC(C(=O)O)C(=O)NCCOCCOCC(=O)NCCOCCOCC(=O)N[C@H](CCC(N)=O)C(=O)N[C@@H](CCCNC(=N)N)C(=O)N1CCC[C@H]1C(=O)N(C)[C@@H](CCCNC(=N)N)C(=O)N[C@@H](CC1CCCCC1)C(=O)N[C@@H](CO)C(=O)N[C@@H](Cc1c[nH]cn1)C(=O)N[C@@H](CCCCN)C(=O)NCC(=O)N1[C@H](C(=O)N[C@@H](CCCC)C(=O)NC(C)(C)C(=O)N[C@H](CC(=O)O)Cc2ccccc2)C[C@@H]2CCCC[C@@H]21
B10: SEQ ID NO: 575 (peptide)
peptide: Palmitoyl-[AC4Abu][AEEA][AEEA][dQ]RP[NMeR][Cha]SHKG[Oic][Nle]P[β3hF]-OH
SMILES: CCCCCCCCCCCCCCCC(=O)NCCC(C(=O)O)C(=O)NCCOCCOCC(=O)NCCOCCOCC(=O)N[C@H](CCC(N)=O)C(=O)N[C@@H](CCCNC(=N)N)C(=O)N1CCC[C@H]1C(=O)N(C)[C@@H](CCCNC(=N)N)C(=O)N[C@@H](CC1CCCCC1)C(=O)N[C@@H](CO)C(=O)N[C@@H](Cc1c[nH]cn1)C(=O)N[C@@H](CCCCN)C(=O)NCC(=O)N1[C@H](C(=O)N[C@@H](CCCC)C(=O)N2CCC[C@H]2C(=O)N[C@H](CC(=O)O)Cc2ccccc2)C[C@@H]2CCCC[C@@H]21
B11: SEQ ID NO: 572 (peptide)
peptide: Palmitoyl-[AC4Abu][AEEA][AEEA][dQ]RP[NMeR][Cha]SHKG[Oic][Nle][βAla][d(β3hF)]-OH
SMILES: CCCCCCCCCCCCCCCC(=O)NCCC(C(=O)O)C(=O)NCCOCCOCC(=O)NCCOCCOCC(=O)N[C@H](CCC(N)=O)C(=O)N[C@@H](CCCNC(=N)N)C(=O)N1CCC[C@H]1C(=O)N(C)[C@@H](CCCNC(=N)N)C(=O)N[C@@H](CC1CCCCC1)C(=O)N[C@@H](CO)C(=O)N[C@@H](Cc1c[nH]cn1)C(=O)N[C@@H](CCCCN)C(=O)NCC(=O)N1[C@H](C(=O)N[C@@H](CCCC)C(=O)NCCC(=O)N[C@@H](CC(=O)O)Cc2ccccc2)C[C@@H]2CCCC[C@@H]21

Target: T1, human APJ receptor (human, UniProt P35414 1-380)
T1 sequence (looked up): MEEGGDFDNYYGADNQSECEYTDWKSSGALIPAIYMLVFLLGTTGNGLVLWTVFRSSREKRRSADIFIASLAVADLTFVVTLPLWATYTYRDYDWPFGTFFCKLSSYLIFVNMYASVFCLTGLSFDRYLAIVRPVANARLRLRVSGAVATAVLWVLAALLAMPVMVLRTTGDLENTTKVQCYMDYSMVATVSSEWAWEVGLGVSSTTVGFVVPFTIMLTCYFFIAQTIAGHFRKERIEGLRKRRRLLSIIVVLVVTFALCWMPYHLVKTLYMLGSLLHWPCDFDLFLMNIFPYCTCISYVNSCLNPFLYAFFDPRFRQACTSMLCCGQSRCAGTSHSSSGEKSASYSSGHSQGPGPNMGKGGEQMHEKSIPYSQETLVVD
Assay: cell-based or functional assay

Binder | EC50 Human APJ Receptor [nM]
B1 | 5.96
B2 | 2.17
Palmitoyl-[AC4Abu][AEEA][AEEA][dQ]RP[NMeR][Cha]SHKG[Nip][Nle][Aib][Phe(4-Cl)]-OH [SEQ ID NO: 582] | 8.5
B3 | 5.15
B4 | 1
B5 | 0.462
B6 | 1.8
B7 | 1.49
B8 | 8.01
B9 | 1.78
B10 | 3.58
B11 | 1.1

Target: T2, rat APJ receptor (rat, UniProt Q9JHG3 1-377)
T2 sequence (looked up): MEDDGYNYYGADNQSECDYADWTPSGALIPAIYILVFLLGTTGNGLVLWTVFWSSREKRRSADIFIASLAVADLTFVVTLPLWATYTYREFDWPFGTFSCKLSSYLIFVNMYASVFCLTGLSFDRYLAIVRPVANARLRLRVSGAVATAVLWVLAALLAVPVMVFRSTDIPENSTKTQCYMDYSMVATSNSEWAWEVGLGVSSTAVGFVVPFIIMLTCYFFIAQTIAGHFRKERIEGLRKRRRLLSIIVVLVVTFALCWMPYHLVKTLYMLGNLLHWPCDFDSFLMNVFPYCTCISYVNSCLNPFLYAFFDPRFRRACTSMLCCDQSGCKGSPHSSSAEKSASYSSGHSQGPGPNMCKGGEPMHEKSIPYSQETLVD
Assay: cell-based or functional assay

Binder | EC50 Rat APJ Receptor [nM]
B1 | 49.2
B2 | 4.24
Palmitoyl-[AC4Abu][AEEA][AEEA][dQ]RP[NMeR][Cha]SHKG[Nip][Nle][Aib][Phe(4-Cl)]-OH [SEQ ID NO: 582] | 29.3
B3 | 8.89
B4 | 0.991
B5 | 0.736
B6 | 4.9
B7 | 4.81
B8 | 19.8
B9 | 4.42
B10 | 14.1
B11 | 7.68
